Consider 13 sequences from the DeepSol protein solubility set.

The series is described as follows: soluble on expression in E. coli; label from the status in PepcDB or PDB records.
“GMLTDMQRDSASSSTVTTEQIVYGALPLTTINEPECRAIAITSINGSATLSGVSGPMGDQTDADLLIQLRGWADAIVVGAETARKENYGPVVLPHGIKNQRQKLGRCGLPKLTLLSKSLYFDFSSELFSPDLPSELSPLVITQQPANNSEQWDQRLQKLIDVGVEVIVAPTSTNPLKIAFDALHARRLKKISIEGGPSVYRQALSLGIVDRLHLTIAPNIICPVESPLFGKISDDSFTTRLVLEMLSSSPNGLIFSRYKVIRDTLGNPTQ”: the “soluble on expression in E. coli” value was “soluble”.

For “MSLLPTILTVDDEEMIRDLMVTALSREGYRCFQAGSAEEARSVLQNNKIDLAILDIMMPGLSGDDFLKELKVLSPETVVLMVTALSDTETAMKCIHLGAYDYILKPFDIDRVLLTIHNALEKQRLLAENREYQANLEKKVDEQTRQIRMAMEDLNLAYNHTLTALVRALDAREKETGSHSERVMTYTLLLGEAMGVPEKDLSVMARGALLHDIGKVGISDNILLKPAKLDEREWMEMMRHPQLGYEILSGIKFLKGPAEIVFAHHERFDGSGYPKGLSRSGIPLGARIFSLVDTLDAMTSDRPYRKALPFEAVTSEVRRCRGTQFDPEIVDIFLSIPRERWEVVGKRHFIVGEGHHHHHH”, the “soluble on expression in E. coli” value is reported as “not soluble”.

Regarding “GQSLRSFQKQNEDNDKRQQILRSINVNVSSSEAETKYNELIKEAFLVNENGEKVEGDAFATDVVKAATEHQYPVFVANVDGQPKYIMALHGAGLWGPLWGYISVDSDKNTIYGADFSHQGETPGLGAEISKPVFSNEFKGKKIFMSGEFKSVAVVKPGKSVAGQDYVDGISGGTITSKGVDEMLFNSLSGYVKFLTSQN”, the “soluble on expression in E. coli” value is recorded as “soluble”.

Turning to “MAKRKICQAMAVVLALGMCTTGLTGCGNEKRADGKTEIEVVSYKPEAVKAFEKIEKQFNETHDDIHLTISSPNEAMTILKTRFIREDYPDIIAIGGDINYSNFLDADLFEDISDLDAVDNVKEAYLDMDKELEFIPKDGTYALPYAANAAGVLYNKDMFAENGWKVPTTWSEFTALCDEIKESGTLPLYLGFKDTWTCLAPWNALAVGLCDSDTCNQVNMGNTTFEEAYSPVADKIRTLLDYAEDNPYAYSYNDACTAFARGESAMYTIGSYAIPQIKSVNPDMNIGSFTFPANDNEADNVLNSGIDLQLSVMKACKNKEAAYEVLEYLYSDETIQTYLDDQGGIACKEGDFAIPDTLEDMQEYIKDNRMSDYQDHHYPSEMSVDAMIQTYLLDTGDNAKEKFLKKFDSDWERYNRDLIREVQDYQKEQEDAK”, the “soluble on expression in E. coli” value is on record as “not soluble”.

Turning to “MGSDKIHHHHHHMTTSTNERTTRAELQDAPRVARLHPQPDYRISVGGRDLSRLFAPRLVSLSISESRSDEADTIDIVLDDSKNDLDIPKRGATIKASIGWAGEPLVDKGSFVVNEVEHSGAPDIITIRARSAAMTSGMQERREKSWHRQTIGSIVHAIAGRYSLSPTVGDALAKILIAHIDQTHESDMSFLTRLAKRYDAVMNVKDLRLLFMPIGTGQTATGKKLDVLELTRASGDSHRYHVSERENYAAVRAHYHSTGRAKRKSVIVGGENNKNVKVLPEDYATEAEARAAAQAEFKRMQRSQATMSYTLARGRAELFPEMPVTVSGFKPEIDETPWLVKKATHTIGDVGFTTALELEMRDDPTTERHRSHFQGSR”, the “soluble on expression in E. coli” value is listed as “not soluble”.

With “SPPENRGEHETGRTLHIATYNIHKGLSFFNQRLILHELRDQLHGLDVDVVFLQEVVGEHALHATRFRDWPRNTQYEFLADSMWPDFAYGKNAVYGHGHHGNAILSRFSIVNWENEDISAHRFESRGLLHCELAIPGWKDTLHCICVHLGLFRRGRSQQLEAIEKRIRQLVSPDAPLVVAGDFNDWRGAANPLLASRLNLVEVFQHTHGKAARSFPSVLPLLRLDRIYIRGFQVKNAQILHNRPWSRISDHAVLSANIMRT”, the “soluble on expression in E. coli” value is given as “not soluble”.

“MGSDKIHHHHHHMERIEAGMSVMTLKKQTYRVIAVINQGQELLVRAHEPETADIEIIPVTTVVQVTEQNSTGDAAVALDTVTVVGERYVDDIVATLTTLRVGMAVLLQRESGNQYDDNAISVWTLQHAKLGYIARYQNQPYATLMDQGQRLYGIVTVLDQQKQHLELMLWRTTAVPSPIEALQIRQRLAKPRTNLGAVPTHSLQTPLGTIVMMCNGHPIKYQQVPLSPWLTPADELHVTKRYLLTPDWSQVPPDSLITCQVTAKADVVQRWQNEHISAAVLTNASSFYVVGISAQTKTGLNDNLVDDAAQPAVIYRVGQVSAHMQAGFMVSWAPFGDPRVQPALKLALHFSSQPLVPYHPVTPSRTNATFTQQELAALLVSALPNYQGGQRLEPSVTTITVEKLRQTLGDQTYHALANYQRHVQLVAGSTEGVNETLLQALIHAVTYHELTTMHYYQPTVGMVDQVIYPIQLFSTTTKDEDDAQLVGCLALYNYETFEIQQVPLTAIARIAIIADPEHPQTTPETESPDWLRIFLHGWNDDF”: the “soluble on expression in E. coli” value is reported as “not soluble”.

Turning to “MAHHHHHHMCLVKLYKRCFVRVPPHCVTVVYETRRNSILASSMEEANNELPQVSHFRPLMYIVSLLLYRSKKLVIVPPTSFFSTFTLPCSVLDESGDGEVVDCTVEDIHVTDGSVRMVMTIRYCIPINELERYLAAVGPTAPNERIALAAAGAARARGAELSVGLIINKSKRDTAFLEPFRAHLSSKLMSESCVKVLDVVVEAAEIADRSLGG”, the “soluble on expression in E. coli” value was “not soluble”.

For the sequence “MNSRQQTILQMVIDQGQVSVTDLAKATGVSEVTIRQDLNTLEKLSYLRRAHGFAVSLDSDDVETRMMSNYTLKRELAEFAASLVQPGETIFIENGSSNALLARTLGEQKKNVTIITVSSYIAHLLKDAPCEVILLGGVYQKKSESMVGPLTRQCIQQVHFSKAFIGIDGWQPETGFTGRDMMRTDVVNAVLEKECEAIVLTDSSKFGAVHSYSIGPVERFNRVITDSKIRASDLMHLEHSKLTIHVVDILEHHHHHH”, the “soluble on expression in E. coli” value was “soluble”.

Consider “MGSDKIHHHHHHMSESYYGLLDEEKVFKDPVHRYIHVRDELIWALIGTKEFQRLRRVRQLGTTFLTFHGAEHTRFNHSLGVYEITRRIIEVFQGRPYWNEEERLLTLCAALLHDIGHGPFSHSFEKVFDTDHEEWTRRMIVGDTEIHNVLLKMGDDFPQKVADVIEKTYPNKLVTSIISSQIDADRMDYLQRDAYYTGVSYGHFDMERILRVMRPMEDQVVIKQSGMHAVEDYIMSRYQMYWQVYFHPVTRSAEVILSKVFKRVKDLYEQGYKFKQEPKHFYSLFEGNMSLDDYLRLDESITMYYFQIWQEEEDRILSDLCVRFINRQLFKYIEFNPNLQMNDWPRLQQLFAQAEIDPEYYLVVDSSSDLPYDFYRPGEEEERLPIHLIMPNGKLRELSRESDVVEAISGKKRTDHKLYFPMDCLTDQSDHKEIKQEILSLLFK”, for which the “soluble on expression in E. coli” value was “not soluble”.

Take “GPGSMSMQQDFVHPRQLDDMRAIHAAINSFSGVMTKMMMLMKELGTTLEQVSHSFDALTSLTFTKDEVKQYVHKFGEEIISMKEGIAFCEYNKLVHEDVLHPVEQLKKSLKEAEQAAKAEKSAFEKYKKAKQRVDKQEKAFAEKSKPLDTSKSYPTHVQARNNALVSLQNCKSEFEERFVMLMNDVESVTSTALRRYLELNAGYMTSVVDALTKTDPTVGEAAVFYRQEKQAHRQSAVEQCCLQVNSDLSTAHASQGYRFDPSRMNGCLHDTIIFKRLPSRLRHSTGSRTRSLRVNRPAVE”: the “soluble on expression in E. coli” value was “soluble”.

“GYMDLMPFINKAGCECLNESDEHGFDNCLRKDTTFLESDCDEQLLITVAFNQPVKLYSMKFQGPDNGQGPKYVKIFINLPRSMDFEEAERSEPTQALELTEDDIKEDGIVPLRYVKFQNVNSVTIFVQSNQGEEETTRISYFTFIGTPVQATNMNDFK”: the “soluble on expression in E. coli” value was “soluble”.

Consider “GPGSMAASSVASVSATKASALAAKKAEKDAHDSRSLFEEYEQLSKDIKNIQLKTMICRTETHQLMKEESAAKQEVKRIQAVPLVLGNFVEVVDSVRGIVSGTSGSQYFVRILSTLNKEHLKPNVSVGLHKSSNACVQLLPSETDATITLLNSSDRPDVTYSDVGGLDMQKQEIREAVELPLTHAGLYEQIGIDPPRGVLLYGPPGTGKTMLVKAVARHTKASFIRVVGSEFVQKFLGEGPRKVRDVFRLARENAPSIIFIDEVDSIATKRFDAQTGADREVQRVLVELLTQMDGFDQTTNVKVIMATNRWDTLDPALLRPGRLDRKIEFPYPDRRQKRLVFQVCTSKMNLSPEVDLEDYVTRPEKLSGADIQSICQEAGMLAVRKNRYVILPRDIENAYRTVIKKTGDETYDFYS”, for which the “soluble on expression in E. coli” value is reported as “not soluble”.
